The target of assay [1] is T1, human amylin 3(a) receptor (human calcitonin receptor plus RAMP-3) (human, UniProt P30988 25-474; O60896 24-148, limits assumed).
T1 sequence (looked up) 1: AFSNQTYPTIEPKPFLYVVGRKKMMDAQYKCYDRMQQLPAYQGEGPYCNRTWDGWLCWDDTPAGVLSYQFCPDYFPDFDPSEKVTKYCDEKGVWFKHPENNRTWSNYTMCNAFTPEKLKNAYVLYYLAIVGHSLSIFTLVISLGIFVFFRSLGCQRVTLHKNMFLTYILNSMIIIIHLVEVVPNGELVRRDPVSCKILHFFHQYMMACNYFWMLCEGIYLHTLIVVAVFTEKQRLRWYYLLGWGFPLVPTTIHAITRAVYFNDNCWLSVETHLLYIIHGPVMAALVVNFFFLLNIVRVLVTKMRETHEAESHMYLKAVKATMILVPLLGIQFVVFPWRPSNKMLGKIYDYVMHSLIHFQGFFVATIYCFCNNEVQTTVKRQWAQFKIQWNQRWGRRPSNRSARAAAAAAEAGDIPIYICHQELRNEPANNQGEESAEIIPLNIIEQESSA
T1 sequence (looked up) 2: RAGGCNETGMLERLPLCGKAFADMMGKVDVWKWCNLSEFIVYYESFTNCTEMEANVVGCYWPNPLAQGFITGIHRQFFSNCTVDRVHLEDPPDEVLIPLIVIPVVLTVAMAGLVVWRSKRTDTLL
Description: cell-based or functional assay.

Assay [2] concerns the target T2, human calcitonin receptor (human, UniProt P30988 25-474).
T2 sequence (looked up): T1 sequence (looked up) 1
Description: cell-based or functional assay.

Assay [3] addresses T1, human amylin 3(a) receptor (human …). Put plainly: SPA competition binding, displacement of 125I-rat amylin from membranes of Amylin 3(a)/CRE-luc BHK cells (Assay V). In short, it runs like this:
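Cell membranes were prepared by homogenisation in Na-HEPES/EDTA buffer, pH 7.4, and stored at −80° C. They were then coupled to SPA beads at 35 ng/μL final and exposed to compounds in assay buffer containing CaCl2, MgCl₂, OA and Tween20. After 120 min at 25° C, plates were counted and IC₅₀ derived.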

Numbered stars: 1 amine (or outer) side, 2 acyl side, 3 side chain; on linkers, the order of the positions; unused ones are H or OH. Bridge positions count the residues as written; N and C are the ends. Side chains are listed from the residue outwards. Ends that are not written are not given here. * marks the point of attachment. C20 diacid = O=C(O)CCCCCCCCCCCCCCCCCCC(=O)*; γGlu = O=C(O)[C@H](CCC(=O)[*:2])N[*:1]

Results on seven molecules are retold here after US20140087995A1 (published 2014).

B1: N^ε1-[(4S)-4-carboxy-4-[[(4S)-4-carboxy-4-(19-carboxynonadecanoylamino)butanoyl]amino]butanoyl]-[Glu14,Arg17,Pro21,Pro27,His34,Glu35]-h-amylin (peptide)
peptide: K([γGlu-γGlu-C20 diacid])CNTATCATQRLAEFLRHSSPNFGAIPSSTNVGHETY-NH2
modifications: disulfide 2-7; N-terminus assumed
SMILES: CC[C@H](C)[C@H](NC(=O)[C@H](C)NC(=O)CNC(=O)[C@H](Cc1ccccc1)NC(=O)[C@H](CC(N)=O)NC(=O)[C@@H]1CCCN1C(=O)[C@H](CO)NC(=O)[C@H](CO)NC(=O)[C@H](Cc1c[nH]cn1)NC(=O)[C@H](CCCNC(=N)N)NC(=O)[C@H](CC(C)C)NC(=O)[C@H](Cc1ccccc1)NC(=O)[C@H](CCC(=O)O)NC(=O)[C@H](C)NC(=O)[C@H](CC(C)C)NC(=O)[C@H](CCCNC(=N)N)NC(=O)[C@H](CCC(N)=O)NC(=O)[C@@H](NC(=O)[C@H](C)NC(=O)[C@@H]1CSSC[C@H](NC(=O)[C@@H](N)CCCCNC(=O)CC[C@H](NC(=O)CC[C@H](NC(=O)CCCCCCCCCCCCCCCCCCC(=O)O)C(=O)O)C(=O)O)C(=O)N[C@@H](CC(N)=O)C(=O)N[C@@H]([C@@H](C)O)C(=O)N[C@@H](C)C(=O)N[C@@H]([C@@H](C)O)C(=O)N1)[C@@H](C)O)C(=O)N1CCC[C@H]1C(=O)N[C@@H](CO)C(=O)N[C@@H](CO)C(=O)N[C@H](C(=O)N[C@@H](CC(N)=O)C(=O)N[C@H](C(=O)NCC(=O)N[C@@H](Cc1c[nH]cn1)C(=O)N[C@@H](CCC(=O)O)C(=O)N[C@H](C(=O)N[C@@H](Cc1ccc(O)cc1)C(N)=O)[C@@H](C)O)C(C)C)[C@@H](C)O
With B1, the “hAmylin-R funct. EC50” value in assay [1] was determined as 445 pM. For the same molecule, in assay [2], the “hCTR funct. EC50” value was found to be 7050 pM. In addition, the IC50 in assay [3] came out at 525 pM.

Consider K([γGlu-γGlu-C20 diacid])CNTATCATQRLAEFLRHSSPNFGAIPSSTNVGSNTP-NH2 (disulfide 2-7 (inferred), also called compound 13), for which, in assay [1], the “Ratio hCT/hAmylin funct.” value came out at 2.2 and the “hAmylin-R funct. EC50” value amounted to 213 pM. Also, in assay [2], the “hCTR funct. EC50” value is 470 pM. Moreover, the IC50 in assay [3] came out at 264 pM.

Take K([γGlu-γGlu-C20 diacid])CNTATCATQRLAEFLRHSSPNFGAILSSTPVGPETY-NH2 (disulfide 2-7 (inferred)): in assay [1], the “Ratio hCT/hAmylin funct.” value turned out to be 5.8 and the “hAmylin-R funct. EC50” value is 222 pM. The “hCTR funct. EC50” value in assay [2] amounted to 1280 pM. Also, the IC50 in assay [3] came to 69 pM.

In the case of K([γGlu-γGlu-C20 diacid])CNTATCATQRLAEFLRHSSPNFGAIPSSTNVGPHTY-NH2 (disulfide 2-7 (inferred)), in assay [1], the “hAmylin-R funct. EC50” value was 172 pM. Moreover, the “hCTR funct. EC50” value in assay [2] amounted to 2830 pM. The IC50 in assay [3] is 377 pM.

B2: N^ε1-[(4S)-4-carboxy-4-[[(4S)-4-carboxy-4-(19-carboxynonadecanoylamino)butanoyl]amino]butanoyl]-[Glu14,Arg17,Pro21,Pro27,His34]-h-amylin (peptide)
peptide: K([γGlu-γGlu-C20 diacid])CNTATCATQRLAEFLRHSSPNFGAIPSSTNVGHNTY-NH2
modifications: disulfide 2-7; N-terminus assumed
SMILES: CC[C@H](C)[C@H](NC(=O)[C@H](C)NC(=O)CNC(=O)[C@H](Cc1ccccc1)NC(=O)[C@H](CC(N)=O)NC(=O)[C@@H]1CCCN1C(=O)[C@H](CO)NC(=O)[C@H](CO)NC(=O)[C@H](Cc1c[nH]cn1)NC(=O)[C@H](CCCNC(=N)N)NC(=O)[C@H](CC(C)C)NC(=O)[C@H](Cc1ccccc1)NC(=O)[C@H](CCC(=O)O)NC(=O)[C@H](C)NC(=O)[C@H](CC(C)C)NC(=O)[C@H](CCCNC(=N)N)NC(=O)[C@H](CCC(N)=O)NC(=O)[C@@H](NC(=O)[C@H](C)NC(=O)[C@@H]1CSSC[C@H](NC(=O)[C@@H](N)CCCCNC(=O)CC[C@H](NC(=O)CC[C@H](NC(=O)CCCCCCCCCCCCCCCCCCC(=O)O)C(=O)O)C(=O)O)C(=O)N[C@@H](CC(N)=O)C(=O)N[C@@H]([C@@H](C)O)C(=O)N[C@@H](C)C(=O)N[C@@H]([C@@H](C)O)C(=O)N1)[C@@H](C)O)C(=O)N1CCC[C@H]1C(=O)N[C@@H](CO)C(=O)N[C@@H](CO)C(=O)N[C@H](C(=O)N[C@@H](CC(N)=O)C(=O)N[C@H](C(=O)NCC(=O)N[C@@H](Cc1c[nH]cn1)C(=O)N[C@@H](CC(N)=O)C(=O)N[C@H](C(=O)N[C@@H](Cc1ccc(O)cc1)C(N)=O)[C@@H](C)O)C(C)C)[C@@H](C)O
notes: also called compound 87
For the molecule B2, in assay [1], the “Ratio hCT/hAmylin funct.” value is 3.8 and the “hAmylin-R funct. EC50” value stood at 285 pM. Further, the “hCTR funct. EC50” value in assay [2] came out at 1100 pM. For the same molecule, the half-maximal inhibitory concentration (IC50) in assay [3] is 633 pM.

B3: N^ε1-[(4S)-4-carboxy-4-[[(4S)-4-carboxy-4-(19-carboxynonadecanoylamino)butanoyl]amino]butanoyl]-[Glu14,Arg17,Pro21,Pro27,Pro34,Glu35]-h-amylin (peptide)
peptide: K([γGlu-γGlu-C20 diacid])CNTATCATQRLAEFLRHSSPNFGAIPSSTNVGPETY-NH2
modifications: disulfide 2-7; N-terminus assumed
SMILES: CC[C@H](C)[C@H](NC(=O)[C@H](C)NC(=O)CNC(=O)[C@H](Cc1ccccc1)NC(=O)[C@H](CC(N)=O)NC(=O)[C@@H]1CCCN1C(=O)[C@H](CO)NC(=O)[C@H](CO)NC(=O)[C@H](Cc1c[nH]cn1)NC(=O)[C@H](CCCNC(=N)N)NC(=O)[C@H](CC(C)C)NC(=O)[C@H](Cc1ccccc1)NC(=O)[C@H](CCC(=O)O)NC(=O)[C@H](C)NC(=O)[C@H](CC(C)C)NC(=O)[C@H](CCCNC(=N)N)NC(=O)[C@H](CCC(N)=O)NC(=O)[C@@H](NC(=O)[C@H](C)NC(=O)[C@@H]1CSSC[C@H](NC(=O)[C@@H](N)CCCCNC(=O)CC[C@H](NC(=O)CC[C@H](NC(=O)CCCCCCCCCCCCCCCCCCC(=O)O)C(=O)O)C(=O)O)C(=O)N[C@@H](CC(N)=O)C(=O)N[C@@H]([C@@H](C)O)C(=O)N[C@@H](C)C(=O)N[C@@H]([C@@H](C)O)C(=O)N1)[C@@H](C)O)C(=O)N1CCC[C@H]1C(=O)N[C@@H](CO)C(=O)N[C@@H](CO)C(=O)N[C@H](C(=O)N[C@@H](CC(N)=O)C(=O)N[C@H](C(=O)NCC(=O)N1CCC[C@H]1C(=O)N[C@@H](CCC(=O)O)C(=O)N[C@H](C(=O)N[C@@H](Cc1ccc(O)cc1)C(N)=O)[C@@H](C)O)C(C)C)[C@@H](C)O
With B3, the “hAmylin-R funct. EC50” value in assay [1] turned out to be 225 pM. Also, the “hCTR funct. EC50” value in assay [2] amounted to 2360 pM. In addition, in assay [3], the IC50 worked out at 121 pM.

B4: N^ε1-[(4S)-4-carboxy-4-[[(4S)-4-carboxy-4-(19-carboxynonadecanoylamino)butanoyl]amino]butanoyl]-[Glu14,Arg17,Pro21,Pro27,Pro34,Arg35]-h-amylin (peptide)
peptide: K([γGlu-γGlu-C20 diacid])CNTATCATQRLAEFLRHSSPNFGAIPSSTNVGPRTY-NH2
modifications: disulfide 2-7; N-terminus assumed
SMILES: CC[C@H](C)[C@H](NC(=O)[C@H](C)NC(=O)CNC(=O)[C@H](Cc1ccccc1)NC(=O)[C@H](CC(N)=O)NC(=O)[C@@H]1CCCN1C(=O)[C@H](CO)NC(=O)[C@H](CO)NC(=O)[C@H](Cc1c[nH]cn1)NC(=O)[C@H](CCCNC(=N)N)NC(=O)[C@H](CC(C)C)NC(=O)[C@H](Cc1ccccc1)NC(=O)[C@H](CCC(=O)O)NC(=O)[C@H](C)NC(=O)[C@H](CC(C)C)NC(=O)[C@H](CCCNC(=N)N)NC(=O)[C@H](CCC(N)=O)NC(=O)[C@@H](NC(=O)[C@H](C)NC(=O)[C@@H]1CSSC[C@H](NC(=O)[C@@H](N)CCCCNC(=O)CC[C@H](NC(=O)CC[C@H](NC(=O)CCCCCCCCCCCCCCCCCCC(=O)O)C(=O)O)C(=O)O)C(=O)N[C@@H](CC(N)=O)C(=O)N[C@@H]([C@@H](C)O)C(=O)N[C@@H](C)C(=O)N[C@@H]([C@@H](C)O)C(=O)N1)[C@@H](C)O)C(=O)N1CCC[C@H]1C(=O)N[C@@H](CO)C(=O)N[C@@H](CO)C(=O)N[C@H](C(=O)N[C@@H](CC(N)=O)C(=O)N[C@H](C(=O)NCC(=O)N1CCC[C@H]1C(=O)N[C@@H](CCCNC(=N)N)C(=O)N[C@H](C(=O)N[C@@H](Cc1ccc(O)cc1)C(N)=O)[C@@H](C)O)C(C)C)[C@@H](C)O
notes: also called compound 110
In the case of B4, in assay [1], the “hAmylin-R funct. EC50” value was found to be 278 pM. For the same molecule, in assay [2], the “hCTR funct. EC50” value turned out to be 8160 pM. The IC50 in assay [3] amounted to 326 pM.

In general, IC50 refers to the midpoint of a concentration-inhibition curve.
